Results taken from patent US20220073586A1 (EUTILEX, published 2022).

T1: PD-L2 antigen (coated on 96-well immunoplate) (UniProt Q9BQ51 20-220, limits assumed)
T1 construct: also called antigen PD-L2
T1 sequence (looked up): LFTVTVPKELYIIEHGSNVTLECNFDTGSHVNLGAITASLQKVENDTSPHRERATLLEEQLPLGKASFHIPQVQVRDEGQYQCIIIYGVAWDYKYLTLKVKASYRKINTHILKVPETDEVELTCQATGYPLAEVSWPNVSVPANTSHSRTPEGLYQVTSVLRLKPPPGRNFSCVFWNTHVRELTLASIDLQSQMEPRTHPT

B1: PD-1.m8 Fc fusion protein (Fc fusion)
chain: FLESPDRPWNAPTFSPALLLVAEGDNATFTCSFSNASESFHVVWHRESPSGQTDTLAAFPEDRSQPGQDHRFRVTRLPNGRDFHMSVVRAQRNDSGTYVCGVISLAPKIQIKESLGAELRVTERRAEVPTAHPSPSPRPAGQFQTLVVGGGGGSSNTKVDKRVEPKSCDKTHTCPPCPAPPVAGPSVFLFPPKPKDTLMISRTPEVTCVVVDVSHEDPEVQFNWYVDGVEVHNAKTKPREEQFNSTFRVVSVLTVVHQDWLNGKEYKCKVSNKGLPAPIEKTISKTKGQPREPQVYTLPPSREEMTKNQVSLTCLVKGFYPSDIAVEWESNGQPENNYKTTPPMLDSDGSFFLYSKLTVDKSRWQQGNVFSCSVMHEALHNHYTQKSLSLSPGK
B2: euPD-1 Fc fusion protein (Fc fusion)
chain: FLESPDRPWNAPTFSPALLLVAEGDNATFTCSFSNASESFHVVWHRESPSGQTDTLAAFPEDRSQPGQDHRFRVTRLPNGRDFHMSVVRAQRNDSGTYVCGVISLAPKIQIKESLRAELRVTERRAEVPTAHPSPSPRPAGQFQTLVVGGGGGSSNTKVDKRVEPKSCDKTHTCPPCPAPPVAGPSVFLFPPKPKDTLMISRTPEVTCVVVDVSHEDPEVQFNWYVDGVEVHNAKTKPREEQFNSTFRVVSVLTVVHQDWLNGKEYKCKVSNKGLPAPIEKTISKTKGQPREPQVYTLPPSREEMTKNQVSLTCLVKGFYPSDIAVEWESNGQPENNYKTTPPMLDSDGSFFLYSKLTVDKSRWQQGNVFSCSVMHEALHNHYTQKSLSLSPGK
B3: PD-1.m7 Fc fusion protein (Fc fusion)
chain: FLESPDRPWNAPTFSPALLLVAEGDNATFTCSFSNASESFHVVWHRESPSGQTDTLAAFPEDRSQPGQDCRFRVTRLPNGRDFHMSVVRARRNDSGTYVCGVISLAPKIQIKESLGAELRVTERRAEVPTAHPSPSPRPAGQFQTLVVGGGGGSSNTKVDKRVEPKSCDKTHTCPPCPAPPVAGPSVFLFPPKPKDTLMISRTPEVTCVVVDVSHEDPEVQFNWYVDGVEVHNAKTKPREEQFNSTFRVVSVLTVVHQDWLNGKEYKCKVSNKGLPAPIEKTISKTKGQPREPQVYTLPPSREEMTKNQVSLTCLVKGFYPSDIAVEWESNGQPENNYKTTPPMLDSDGSFFLYSKLTVDKSRWQQGNVFSCSVMHEALHNHYTQKSLSLSPGK

Columns and labels:
[1] = molecular target: PD-L1 molecules (Sino, Cat #10084-H08H) (UniProt Q9NZQ7 19-238); experiment: SPR, Biacore T200; PD-1 Fc fusion fixed on CM5 chip, PD-L1 injected at 3.125-100 nM
[2] = molecular target: T2, PD-L1 antigen (coated on 96-well immunoplate) (UniProt Q9NZQ7 19-238, limits assumed); experiment: single antigen ELISA, PD-L1 coated at 1 ug/mL, detection with anti-hFc-HRP
T2 construct: also called antigen PD-L1
Procedure: (§1) Briefly, after coating PD-L1 antigen or PD-L2 antigen at a concentration of 1 μg/ml in a 96-well immunoplate at 4° C. overnight, 150 μl of 1× assay buffer (Biolegend) was treated for 1 hour to block non-specific binding. […] The treatment concentration on the antigen PD-L1-coated plate was serially diluted from 30 μg/mL to 3 times to make a total of 15 points, The treatment concentration on the antigen PD-L2 coated plate was serially diluted 3 times from 100 μg/mL to a total of 12 points. Anti-hFc-HRP (Biolegend) was treated with 100 μl at a concentration of 0.4 μg/mL. After incubation for 1 hour, color was developed with TMB, and after 3 minutes, the reaction was stopped using sulfuric acid. Washing was performed 3 times using washing buffer in all processes except for the process after TMB treatment, All processes except for the antigen coating process were carried out at room temperature.

[3] = molecular target: T1, PD-L2 antigen (coated on 96-well …); experiment: single antigen ELISA, PD-L2 coated at 1 ug/mL, detection with anti-hFc-HRP
Procedure: as §1

PD-L1 molecules (Sino, Cat #10084-H08H), sequence (Q9NZQ7 19-238 limits assumed): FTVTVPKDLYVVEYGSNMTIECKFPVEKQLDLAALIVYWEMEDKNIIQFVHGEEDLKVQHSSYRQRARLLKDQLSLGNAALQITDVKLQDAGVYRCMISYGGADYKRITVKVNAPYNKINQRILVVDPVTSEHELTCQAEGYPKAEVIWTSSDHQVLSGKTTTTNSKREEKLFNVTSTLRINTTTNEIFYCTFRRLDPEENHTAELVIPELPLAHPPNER
T2 sequence (Q9NZQ7 19-238 limits assumed): as above

Row | Kd [1] [nM] | koff [1] [s⁻¹] | kon [1] [M⁻¹ s⁻¹] | EC50 (read off the curve) [2] [µg/mL] | binding result [3] | Binder
1 | 1.04 | 0.00182 | 1.76e+06 |  |  | B1
2 | 0.714 | 0.0013 | 1.82e+06 | ~0.03 | no binding (tested: 100 ug/mL) | B2
3 | 1.1 | 0.00216 | 1.96e+06 |  |  | B3
